Sequences and labels used below:
B1: humanized antibody No. 83 (antibody, human IgG1, kappa)
heavy: QIQLVQSGSELKKPGASVKVSCKASGYTFTDYSMHWVRQAPGQGLKWMGWINTETGEPTYAQGFTGRFVFSLDTSVSTAYLQISSLKAEDTAVYYCARIPLYYYGSRYWYFDVWGQGTTVTVSSASTKGPSVFPLAPSSKSTSGGTAALGCLVKDYFPEPVTVSWNSGALTSGVHTFPAVLQSSGLYSLSSVVTVPSSSLGTQTYICNVNHKPSNTKVDKRVEPKSCDKTHTCPPCPAPPAAAPSVFLFPPKPKDTLMISRTPEVTCVVVDVSHEDPEVQFNWYVDGVEVHNAKTKPREEQFNSTFRVVSVLTVVHQDWLNGKEYKCKVSNKGLPAPIEKTISKTKGQPREPQVYTLPPSREEMTKNQVSLTCLVKGFYPSDIAVEWESNGQPENNYKTTPPMLDSDGSFFLYSKLTVDKSRWQQGNVFSCSVMHEALHNHYTQKSLSLSPG
light: DIQMTQSPSSLSASVGDRVTITCRASENIYRNLAWYQQKPGKAPKLLLYAATNLADGVPSRFSGSGSGTDYTLTISSLQSEDFATYYCQHFWGTPWTFGQGTKVEIKRTVAAPSVFIFPPSDEQLKSGTASVVCLLNNFYPREAKVQWKVDNALQSGNSQESVTEQDSKDSTYSLSSTLTLSKADYEKHKVYACEVTHQGLSSPVTKSFNRGEC
notes: human Ig kappa; also called L1-5/HA4
B2: humanized antibody No. 92 (antibody, human IgG1, kappa)
heavy: B1 heavy with Q62D, G63D, T65K
light: B1 light with K45Q, S80P
notes: human Ig kappa; also called L1-6/HK4
B3: humanized antibody No. 90 (antibody, human IgG1, kappa)
heavy: B1 heavy with I2V, K46E, Q62D, G63D, T65K
light: B1 light with K45Q, S80P
notes: human Ig kappa; also called L1-6/HK1
B4: humanized antibody No. 84 (antibody, human IgG1, kappa)
heavy: B1 heavy with I2V, K46E, Q62D, G63D, T65K
light: B1 light
notes: human Ig kappa; also called L1-5/HK1
B5: humanized antibody No. 88 (antibody, human IgG1, kappa)
heavy: B1 heavy with I2V
light: B1 light with K45Q, S80P
notes: human Ig kappa; also called L1-6/HA2
B6: humanized antibody No. 89 (antibody, human IgG1, kappa)
heavy: B1 heavy
light: B1 light with K45Q, S80P
notes: human Ig kappa; also called L1-6/HA4
B7: humanized antibody No. 86 (antibody, human IgG1, kappa)
heavy: B1 heavy with Q62D, G63D, T65K
light: B1 light
notes: human Ig kappa; also called L1-5/HK4
B8: humanized antibody No. 85 (antibody, human IgG1, kappa)
heavy: B1 heavy with I2V, Q62D, G63D, T65K
light: B1 light
notes: human Ig kappa; also called L1-5/HK2
B9: humanized antibody No. 91 (antibody, human IgG1, kappa)
heavy: B1 heavy with I2V, Q62D, G63D, T65K
light: B1 light with K45Q, S80P
notes: human Ig kappa; also called L1-6/HK2
B10: humanized antibody No. 87 (antibody, human IgG1, kappa)
heavy: B1 heavy with I2V, K46E
light: B1 light with K45Q, S80P
notes: human Ig kappa; also called L1-6/HA1

Numbering of substitutions follows the chain as printed.

T1 sequence (P54764 20-547): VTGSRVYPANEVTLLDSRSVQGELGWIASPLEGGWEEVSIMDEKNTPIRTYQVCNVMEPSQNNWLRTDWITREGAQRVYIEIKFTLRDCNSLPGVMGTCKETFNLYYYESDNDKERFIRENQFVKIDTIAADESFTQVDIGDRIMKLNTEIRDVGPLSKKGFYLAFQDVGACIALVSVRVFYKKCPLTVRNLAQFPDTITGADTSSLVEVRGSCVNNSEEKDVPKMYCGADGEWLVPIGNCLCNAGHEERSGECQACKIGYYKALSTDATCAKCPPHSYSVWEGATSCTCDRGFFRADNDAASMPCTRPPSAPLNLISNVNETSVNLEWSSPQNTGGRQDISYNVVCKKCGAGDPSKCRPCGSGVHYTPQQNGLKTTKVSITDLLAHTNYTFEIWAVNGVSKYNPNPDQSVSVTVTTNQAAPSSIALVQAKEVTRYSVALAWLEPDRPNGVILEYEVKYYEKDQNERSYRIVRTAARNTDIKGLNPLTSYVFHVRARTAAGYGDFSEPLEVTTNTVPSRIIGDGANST

One test concerns the target T1, human EphA4 extracellular region-SEAP-His protein (human, UniProt P54764 20-547).
T1 construct: also called hEphA4-SEAP-His
In words: ELISA. The method, then:
(§1) Each well of a 96-well plate (Nunc) was coated with a rabbit anti-6-His antibody (Bethyl Laboratories). Each well was […] After washing with 0.05% Tween 20/PBS (Nacalai Tesque) three times, the SEAP-His protein of human EphA1, EphA2, EphA3, EphA4, EphA5, EphA6, EphA7, EphA8, EphA10, EphB1, EphB2, EphB3, EphB4, or EphB6 was added (final concentration: 1 nM) to each well and incubated at room temperature for 1 hour. After washing three times, the humanized antibody was added to each well and incubated at room temperature for 1 hour. After washing three times, a horseradish peroxidase-labeled donkey […] antibody (Jackson ImmunoResearch Laboratories) was added thereto and incubated at room temperature for 1 hour. After washing three times, TMB Microwell Peroxidase Substrate System (Kirkegaard & Perry Laboratories (KPL)) was added to each well. After confirmation of moderate color development, an equal amount of a reaction stopping solution (1N H₂SO₄, Wako Pure Chemical Industries) was added to each well. The absorbance at 450 nm was read using a microplate reader (Thermo Fisher Scientific).
As for B1, the “A450 as % of hEphA4-SEAP-His” value turned out to be 100%.

B2: the “A450 as % of hEphA4-SEAP-His” value turned out to be 100%.

For the molecule B3, the “A450 as % of hEphA4-SEAP-His” value stood at 100%.

As to B4, the “A450 as % of hEphA4-SEAP-His” value was determined as 100%.

Take B5: the “A450 as % of hEphA4-SEAP-His” value came to 100%.

Consider B6, for which the “A450 as % of hEphA4-SEAP-His” value was found to be 100%.

Take B7: the “A450 as % of hEphA4-SEAP-His” value amounted to 100%.

On to B8, for which the “A450 as % of hEphA4-SEAP-His” value turned out to be 100%.

Consider B9, for which the “A450 as % of hEphA4-SEAP-His” value came out at 100%.

For B10, the “A450 as % of hEphA4-SEAP-His” value was 100%.

The next test addresses T2, human EphB1 extracellular region-SEAP-His protein (human, UniProt P54762 18-540).
T2 construct: extracellular domain; also called hEphB1-SEAP-His
T2 sequence (looked up): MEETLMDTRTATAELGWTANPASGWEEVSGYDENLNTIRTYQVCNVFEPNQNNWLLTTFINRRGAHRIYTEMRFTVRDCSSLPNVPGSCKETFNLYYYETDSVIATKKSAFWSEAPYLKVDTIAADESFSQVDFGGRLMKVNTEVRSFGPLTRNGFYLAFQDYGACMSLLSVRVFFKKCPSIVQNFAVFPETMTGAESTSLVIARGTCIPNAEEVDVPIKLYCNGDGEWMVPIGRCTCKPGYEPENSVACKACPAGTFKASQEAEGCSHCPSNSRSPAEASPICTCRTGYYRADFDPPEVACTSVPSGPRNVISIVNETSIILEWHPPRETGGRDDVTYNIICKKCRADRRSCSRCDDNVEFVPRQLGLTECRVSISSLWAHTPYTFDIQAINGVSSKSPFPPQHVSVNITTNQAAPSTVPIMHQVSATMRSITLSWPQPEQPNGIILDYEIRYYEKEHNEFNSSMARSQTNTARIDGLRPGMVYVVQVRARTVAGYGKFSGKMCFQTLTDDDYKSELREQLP
Briefly: ELISA. The method, then:
as §1
Background: An ELISA detects its analyte on a solid surface through an enzyme-linked reagent.
Turning to B1, the “A450 as % of hEphA4-SEAP-His” value turned out to be 5.6%.

For B2, the “A450 as % of hEphA4-SEAP-His” value is 6.9%.

With B3, the “A450 as % of hEphA4-SEAP-His” value was found to be 4.9%.

In the case of B4, the “A450 as % of hEphA4-SEAP-His” value is 5.2%.

B5: the “A450 as % of hEphA4-SEAP-His” value came to 6.1%.

Take B6: the “A450 as % of hEphA4-SEAP-His” value amounted to 5.7%.

As to B7, the “A450 as % of hEphA4-SEAP-His” value was 5.7%.

On to B8, for which the “A450 as % of hEphA4-SEAP-His” value amounted to 5%.

Take B9: the “A450 as % of hEphA4-SEAP-His” value turned out to be 6.6%.

Regarding B10, the “A450 as % of hEphA4-SEAP-His” value worked out at 5.3%.

The next test has as its target T1, human EphA4 extracellular …. In words: SPR, Ab captured. The method, then: The binding affinity of each anti-EphA4 monoclonal humanized antibody obtained in Example 16 for human EphA4 was determined by surface plasmon resonance (SPR) using Biacore T200 (GE Healthcare). First, for the assay of antibody A, a rat anti-mouse IgG₁ antibody produced with a conventional method by immunizing rat with mouse IgG₁ antibody was immobilized on sensor chip CM5. The immobilization of the rat anti-mouse IgG1 antibody on sensor chip CM5 was performed by the amine coupling method using N-hydroxysuccinimide (NHS) and N-ethyl-N′-(3-dimethylaminopropyl)carbodiimide hydrochloride (EDC). Ethanolamine was used in blocking (the sensor chip and the reagents for immobilization were all manufactured by GE Healthcare). The antibody was diluted with a buffer solution for immobilization (10 mM sodium acetate, pH 4.5) and immobilized on the sensor chip according to the protocol attached to Biacore T200. For the assay of each humanized monoclonal antibody, a protein A chip (GE Healthcare, 29-1383-03) was used. Antibody A or the humanized monoclonal antibody was diluted with a running buffer solution HBS-EP (GE Healthcare), injected onto only flow cell 2 for 120 seconds, and captured (captured amount: approximately 30 to 60 RU). Subsequently, human EphA4 extracellular region-SEAP-His protein serially diluted in the range of 50, 16.7, 5.6, 1.9, and 0.6 nM using HBS-EP was sequentially added from the lower toward higher concentration sides without regeneration operation. Binding reaction curves were sequentially observed at the time of the addition (association phase, for 120 sec) and after the completion of the addition (dissociation phase, for 900 sec). After the completion of each observation, the sensor chip was regenerated by the addition of 3 M MgCl₂ (for 60 sec) or 10 mM Glycine-HCl pH 1.5 (for 30 sec). The obtained binding reaction curves were subjected to fitting analysis with 1:1 binding models using software BIA evaluation attached to the system to calculate the affinity (KD=kd/ka) for human EphA4 (Table 6).
One may read the Kd as the equilibrium constant for the complex coming apart. The low end stands for tighter binding, the high end for weaker binding. What is called koff is the first-order rate constant of dissociation. Read a low koff as slow dissociation. One may read the kon as a measure of how fast the partners come together. Turning to B1, binding was characterised by a dissociation constant (Kd) of 1.9 nM, the koff came out at 0.00054 s⁻¹ and the kon stood at 290000 M⁻¹ s⁻¹.

Take B2: the Kd amounted to 1.3 nM, the koff worked out at 0.00043 s⁻¹ and the kon turned out to be 330000 M⁻¹ s⁻¹.

Molecule B3 showed a Kd of 1.5 nM, a koff of 0.00055 s⁻¹ and a kon of 360000 M⁻¹ s⁻¹.

For the molecule B4, the Kd is 1.7 nM, the koff is 0.00056 s⁻¹ and the on-rate constant (kon) is 350000 M⁻¹ s⁻¹.

On to B5, for which binding was characterised by a dissociation constant (Kd) of 1.4 nM, the dissociation rate constant (koff) came out at 0.00042 s⁻¹ and the kon stood at 300000 M⁻¹ s⁻¹.

B6 had a Kd of 1.3 nM, a dissociation rate constant (koff) of 0.00041 s⁻¹ and a kon of 310000 M⁻¹ s⁻¹.

Molecule B7 registered a Kd of 1.5 nM, a koff of 0.00046 s⁻¹ and a kon of 310000 M⁻¹ s⁻¹.

As to B8, the affinity, expressed as Kd, was 1.6 nM; the koff worked out at 0.0005 s⁻¹; the kon came to 310000 M⁻¹ s⁻¹.

Molecule B9 registered a Kd of 1.3 nM, an off-rate (koff) of 0.00044 s⁻¹ and a kon of 330000 M⁻¹ s⁻¹.

On to B10, for which the Kd was 1.5 nM, the off-rate constant (koff) was 0.00051 s⁻¹ and the kon came out at 350000 M⁻¹ s⁻¹.

For the next test the target is unchanged. In words: competition ELISA, competitor human Ephrin A5-Fc. The method, then: Each anti-EphA4 monoclonal humanized antibody obtained in Example 16 was evaluated for its inhibitory activity against the binding between human EphA4 and its human ligand according to the following steps. Each well of a 96-well plate (Nunc) was coated with an anti-alkaline phosphatase antibody (Thermo Fisher Scientific). After incubation overnight at 4° C., each well was blocked with 1% BlockAce (DS Pharma Biomedical) at room temperature for 1 hour. After washing with 0.05% Tween 20/PBS (Thermo Fisher Scientific) three times, the human EphA4 extracellular region-SEAP-His protein obtained by the method of Example 2 was added (final concentration: 10 nM) to each well and incubated at room temperature for 1 hour. After washing three times, a ligand and each serially diluted humanized antibody of antibody A (0, 0.003, 0.01, 0.03, 0.1, 0.3, 1, 3, 10, 30, 100, 300, 1000, and 3000 nM) were added to each well. The ligand used was biotinylated human Ephrin A5-Fc chimera (R&D Systems, final concentration: 0.7 nM). After incubation at room temperature for 1 hour and subsequent washing three times, horseradish peroxidase-labeled streptavidin (GE Healthcare) was added thereto and incubated at room temperature for 1 hour. After washing three times, a TMBZ (3,3′,5,5′-tetramethylbenzidine, Sigma-Aldrich) solution was added to each well and incubated at room temperature for 2 minutes. An equal amount of a reaction stopping solution (1N H₂SO₄, Wako Pure Chemical Industries) was added to each well. The absorbance at 450 nm was read using a microplate reader (PerkinElmer).
One may read the IC50 as the concentration that gives 50% inhibition. For the molecule B1, the IC50 came to 3.7 nM.

B2 returned an IC50 of 3.5 nM.

As for B3, the IC50 was 4.5 nM.

B4: the IC50 was found to be 4.6 nM.

Regarding B5, the concentration for half-maximal inhibition (IC50) turned out to be 3.6 nM.

For the molecule B6, the IC50 turned out to be 4.3 nM.

In the case of B7, the concentration for half-maximal inhibition (IC50) is 4 nM.

B8 gave an IC50 of 4 nM.

On to B9, for which the IC50 turned out to be 4.9 nM.

In turn, B10 displayed an IC50 of 3 nM.

(Values after patent publication US20190077860A1 (EISAI R AND D MANAGEMENT, published 2019).)
